In US12233132B2, “Polyoxazoline-lipid conjugates and lipid nanoparticles and pharmaceutical compositions including same” (Serina Therapeutics, Inc., priority 2021, dated 2025):

Assays:
[1] = Hydrolysis kinetics of POZ-lipid conjugates in rat plasma; format: in vitro ADME; conditions: 50% rat plasma diluted in PBS, 37° C.
Procedure: (§1) These solutions were spiked into the PBS or rat or human plasma media and allowed to incubate at 37° C. Samples were removed from hydrolysis media at different time intervals and quenched by addition of chilled 0.2% formic acid in methanol. […] The POZ-lipid conjugates were detected by UV absorption at 210 nm, and its breakdown and degradation metabolites were detected followed by mass spectrometry.

[2] = Hydrolysis kinetics of POZ-lipid conjugates in human plasma; format: in vitro ADME; conditions: for Half-Life 50% Human Plasma: 50% human plasma diluted in PBS, 37° C.; for rate of hydrolysis in plasma, ester versus ether linkages: compared with ether linkages (Compounds 17a, 17b and 17c)
Procedure: as §1

Substance	Half-Life 50% Rat Plasma [1] [h]	Half-Life 50% Human Plasma [2] [h]	rate of hydrolysis in plasma, ester versus ether linkages [2]
PEOZ 2K DMG-(triazole-2-propionate) [Compound 19b]	1	5	faster rate
PEOZ-(triazole-3-propionyl-DMG) 2K [Compound 19c]	<1	7	faster rate
